# Experimental data as given in patent US20210206804A1.
# Primed or numbered codes have the meaning given here. The star is where a group is joined. (^19F)FBA = O=C(c1ccc([19F])cc1)*; PEG11′ = not defined here
# T1: αvβ6 integrin (purified, captured on the ELISA plate), P06756
# T1 chain 1: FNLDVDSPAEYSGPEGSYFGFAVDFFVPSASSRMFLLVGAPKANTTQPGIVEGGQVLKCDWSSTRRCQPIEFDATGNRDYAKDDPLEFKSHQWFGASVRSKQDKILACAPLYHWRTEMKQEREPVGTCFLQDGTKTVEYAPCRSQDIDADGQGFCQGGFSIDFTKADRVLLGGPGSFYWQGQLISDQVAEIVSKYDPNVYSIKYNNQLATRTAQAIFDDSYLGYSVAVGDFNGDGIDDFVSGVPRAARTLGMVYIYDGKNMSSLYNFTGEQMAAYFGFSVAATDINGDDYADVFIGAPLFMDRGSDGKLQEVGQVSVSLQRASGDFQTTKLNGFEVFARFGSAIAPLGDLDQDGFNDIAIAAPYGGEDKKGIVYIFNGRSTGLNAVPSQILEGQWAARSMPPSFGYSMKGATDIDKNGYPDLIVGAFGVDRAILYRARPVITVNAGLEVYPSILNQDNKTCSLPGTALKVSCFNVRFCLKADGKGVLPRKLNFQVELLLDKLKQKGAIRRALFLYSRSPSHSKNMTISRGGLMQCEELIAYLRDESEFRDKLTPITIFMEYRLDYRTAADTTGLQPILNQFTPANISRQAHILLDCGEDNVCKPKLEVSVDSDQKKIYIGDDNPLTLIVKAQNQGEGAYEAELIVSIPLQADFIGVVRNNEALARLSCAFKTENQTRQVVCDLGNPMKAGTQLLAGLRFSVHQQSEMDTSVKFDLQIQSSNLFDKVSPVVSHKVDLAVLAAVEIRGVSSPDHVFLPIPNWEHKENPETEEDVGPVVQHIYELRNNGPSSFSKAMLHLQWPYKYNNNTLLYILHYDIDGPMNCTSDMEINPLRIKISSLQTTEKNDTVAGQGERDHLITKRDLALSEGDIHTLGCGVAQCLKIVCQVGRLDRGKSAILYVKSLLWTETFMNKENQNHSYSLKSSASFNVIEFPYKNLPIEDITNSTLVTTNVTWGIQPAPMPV
# T1 chain 2: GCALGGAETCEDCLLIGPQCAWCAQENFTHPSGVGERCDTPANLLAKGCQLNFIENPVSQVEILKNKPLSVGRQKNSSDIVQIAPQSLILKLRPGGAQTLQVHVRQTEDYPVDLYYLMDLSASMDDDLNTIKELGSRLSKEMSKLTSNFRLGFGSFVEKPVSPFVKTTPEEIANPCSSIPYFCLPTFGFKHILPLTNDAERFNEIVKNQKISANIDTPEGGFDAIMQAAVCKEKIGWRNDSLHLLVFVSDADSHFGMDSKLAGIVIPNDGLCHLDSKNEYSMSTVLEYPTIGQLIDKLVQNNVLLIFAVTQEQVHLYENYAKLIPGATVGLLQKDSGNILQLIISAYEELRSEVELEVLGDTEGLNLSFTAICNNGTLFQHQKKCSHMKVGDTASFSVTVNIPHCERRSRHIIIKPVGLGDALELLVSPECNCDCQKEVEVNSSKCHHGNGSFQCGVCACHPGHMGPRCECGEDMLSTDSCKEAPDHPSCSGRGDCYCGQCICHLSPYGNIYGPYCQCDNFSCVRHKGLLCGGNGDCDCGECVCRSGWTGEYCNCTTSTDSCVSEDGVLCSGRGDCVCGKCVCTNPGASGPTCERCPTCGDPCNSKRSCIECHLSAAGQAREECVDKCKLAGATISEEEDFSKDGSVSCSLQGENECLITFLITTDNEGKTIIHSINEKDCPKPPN
# Target: T1, αvβ6 integrin (purified, captured on …)
# Experiment: competitive ELISA; captured αvβ6; competitor biotinylated fibronectin
row,Binder,IC50 [nM]
1,{(^19F)FBA}-RSDLTPLF-{PEG11′-NH2} [[^19F]FBA-RSDLTPLF-PEG11-NH2],40
2,H-RSDLTPLFK((^19F)FBA)-NH2 [H-…([^19F]FBA)-NH2],34
3,{(^19F)FBA-PEG11′}-RSDLTPLF-{PEG11′-NH2} [[^19F]FBA-PEG11-RSDLTPLF-PEG11-NH2],25
4,{(^19F)FBA-PEG11′}-RSDLTPLF-NH2 [[^19F]FBA-PEG11-RSDLTPLF-NH2],40
5,{(^19F)FBA}-RSDLTPLF-NH2 [[^19F]FBA-RSDLTPLF-NH2],7
